Data as given in patent publication US20170029841A1, “METHODS AND COMPOSITIONS FOR SELECTIVE REGULATION OF PROTEIN EXPRESSION” (priority 2015, published 2017).
Where two headings read alike, the source gives them in different places.

Tests used:
transgenic maize plants = conditions: for CIPVT (LSD = 8.1): glyphosate 1.5 lbs ae/acre at V2, 0.75 at V8, 0.75 at V10, range over events; for Avg. plant height (inches) (LSD = 6.9): in vivo
[1] = test system: transgenic maize R0 plants (double copy events); assay: R0 plant greenhouse glyphosate spray: vegetative tolerance and induced male sterility; assay type: in vivo; conditions: vector configuration A
Method: Transformation vectors containing the recombinant DNA constructs were used with an Agrobacterium-based transformation method and maize immature embryos and techniques known in the art. Leaf samples of R0 plants were collected and molecular analysis was conducted to select transgenic plants containing a single copy (one insertion) or a double copy (two independent insertions) of the recombinant DNA construct and no presence of vector backbone. Single copy events were not sprayed with glyphosate and were selfed and advanced for R1 seed collection, while double copy events were used for R0 glyphosate spray to assess vegetative tolerance and induced male sterility. Transgenic plants that were not sprayed with glyphosate had normal anthesis, normal pollen shedding, and normal pollen development as determined by Alexandar staining and microscopic observation.
Double copy R0 events were used in testing to approximate a single copy homozygous event. Plants were sprayed with glyphosate at two different growth stages to determine if the presence of the mts-siRNA target element in the recombinant DNA construct provided vegetative glyphosate tolerance and glyphosate-induced tassel sterility. The plants were sprayed in a greenhouse with 1× glyphosate (0.75 lb ae/acre) applied at the V5 stage followed by 1× glyphosate (0.75 lb ae/acre) applied at the V8 stage. Seven days after the V5 stage glyphosate application, plants were scored for vegetative injury with scores of ≦10% injury considered as showing vegetative glyphosate tolerance (% Vegetative Tolerant). Male sterility was measured in two ways. […] Anthers were then collected and dissected to microscopically observe pollen development. Anthers for each event were tested for no viable pollen grains produced as detected by Alexandar staining under microscopic observation and scored as not producing any viable pollen (% No Pollen). In plants not sprayed with glyphosate, tassel development, anther extrusion, and pollen development were normal.
The mts-siRNA target elements were tested in multiple transformation vector configurations. Each transformation vector was used to produce multiple R0 plants with each R0 plant representing a unique transgenic event made using the same transformation vector. Data for three different transformation vector configurations are provided as Tables 11 and 12.

B1: SEQ ID NO: 8: mts-siRNA target element, nucleotide positions 247 to 441 of cDNA SEQ ID NO: 21 (nucleic acid)
DNA: AGATTGGTCATACACTAGATAGGGCTAGATCACTCGGGTCGCCACAAGTTGAAGAATGCAAAGAGTGTCCACATGATTTCATGGTGATGAACAGTGATTTTATGAGCAAACTAGCAAAGGATAATCAGTTGCATATATGTGATGAAGACCGATCAGTTTCCGAGCAAAGTAGCAAATGAGTCATCGAAGCTGTCA
modifications: Zea mays
Transgenic maize plants; average anther extrusion at S90+8, same glyphosate regimen, listed as 8
  AES90+8 (LSD = 10): 15.75-17.85%
Transgenic maize plants; end of season
  Seed Yield bu/acre (LSD = 24.7): 80-90 bu/acre
Transgenic maize plants
  CIPVT (LSD = 8.1): No significant difference
  Avg. plant height (inches) (LSD = 6.9): No significant difference
Transgenic maize plants; listed as 8
  CIPVT (LSD = 8.1): 2.5-2.7%
  Avg. plant height (inches) (LSD = 6.9): 80.1 inches
[1]; glyphosate 0.75 lb ae/acre at V5 then V8, <=10% injury 7 days after V5 spray, listed as 8
  % Vegetative Tolerant: 90%
[1]; no anther extrusion up to S90+12 after V8 glyphosate, listed as 8
  % Completely Male-sterile: 100%
[1]; no viable pollen by Alexandar staining
  % No Pollen: 50%
